# Target: GST-fused N-terminal fragment of human β-spectrin (GST-hNβSp) (human) (UniProt P11277)
# Test: SPR; Biacore X100; GST-hNβSp (500 nM) captured on a CM5 chip by anti-GST antibody; h4.1R recombinants (GST cleaved) 150-1000 nM as analyte; PBS, 25 °C; regeneration in 10 mM Glycine-Cl pH 2.1
# Sequence of UniProt P11277 (P11277 1-527): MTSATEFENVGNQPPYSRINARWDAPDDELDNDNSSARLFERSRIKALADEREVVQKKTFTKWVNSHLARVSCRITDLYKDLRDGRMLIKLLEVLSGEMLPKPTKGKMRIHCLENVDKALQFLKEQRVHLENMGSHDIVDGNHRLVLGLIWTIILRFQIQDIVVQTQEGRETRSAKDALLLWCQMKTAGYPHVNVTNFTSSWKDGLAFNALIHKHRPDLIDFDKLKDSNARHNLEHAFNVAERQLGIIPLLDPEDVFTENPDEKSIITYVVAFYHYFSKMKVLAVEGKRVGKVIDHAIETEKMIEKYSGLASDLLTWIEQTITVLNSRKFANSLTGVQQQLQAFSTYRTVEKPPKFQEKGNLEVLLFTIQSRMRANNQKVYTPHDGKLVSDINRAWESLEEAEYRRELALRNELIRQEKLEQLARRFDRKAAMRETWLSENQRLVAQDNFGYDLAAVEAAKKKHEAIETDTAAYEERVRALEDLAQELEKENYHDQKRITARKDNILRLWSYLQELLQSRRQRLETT
Kd [µM],kon [M⁻¹ s⁻¹],Substance
0.121,55100,"human 4.1R with the PE and e14 sequences of alpaca 4.1R (h4.1R[PE14]), cleaved from GST"
0.633,5040,"human protein 4.1R, wild type (h4.1R WT), cleaved from GST (natural protein)"

# Reference: paper PMC9926112
